# PMC4841237, “Structure and stability of recombinant bovine odorant-binding protein: II. Unfolding of the monomeric forms” (PeerJ, 2016)
# B1: recombinant bovine odorant-binding protein (natural protein)
# chain: AQEEEAEQNLSELSGPWRTVYIGSTNPEKIQENGPFRTYFRELVFDDEKGTVDFYFSVKRDGKWKNVHVKATKQDDGTYVADYEGQNVFKIVSLSRTHLVAHNINVDKHGQTTELTELFVKLNVEDEDLEKFWKLTEDKGIDKKNVVNFLENEDHPHPE
# notes: In some samples 10 mM 1-octen-3-ol (OCT) was present; also called bOBP; bOBPwt; source: E. coli BL21(DE3), plasmid pT7-7-bOBP, purified (Ni+-agarose, HisGraviTrap)
# Target: the molecule itself
# Assay: SEC; gel filtration on Superdex-75 PC 3.2/30, 20 mM Na-phosphate pH 7.8, without GdnHCl and at low GdnHCl (below 1.5-2 M), with or without 10 mM OCT; protein 0.1-0.2 mg/ml; monomer to dimer
protein,measurement,value
B1,stoichiometry N,2
